Numbering of substitutions follows the chain as printed.
T1: human BCMA (human, UniProt Q02223 1-184)
T1 construct: whole, on cells; also called hBCMA; TNFRSF17
T1 sequence (looked up): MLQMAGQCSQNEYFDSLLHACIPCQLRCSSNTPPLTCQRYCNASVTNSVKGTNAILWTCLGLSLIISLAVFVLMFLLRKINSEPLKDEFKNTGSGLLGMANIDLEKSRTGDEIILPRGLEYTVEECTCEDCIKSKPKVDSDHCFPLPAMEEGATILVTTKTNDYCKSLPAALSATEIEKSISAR

B1: PR001996 (bispecific antibody, IgG1)
chain 1: EVQLLESGGGLVQPGGSLRLSCAASGFTFNTYAMNWVRQAPGKGLEWVSRIRSKYNNYATYYADSVKDRFTISRDDSKSTLYLQMNSLRAEDTAVYYCVRHGNFGNSYVSWFAYWGQGTLVTVSSASTKGPSVFPLAPSSKSTSGGTAALGCLVKDYFPEPVTVSWNSGALTSGVHTFPAVLQSSGLYSLSSVVTVPSSSLGTQTYICNVNHKPSNTKVDKKVEPKSC
chain 2: QAVVTQEPSLTVSPGGTVTLTCRSSTGAVTTSNYANWVQQKPGQAPRGLIGGTNKRAPWTPARFSGSLLGDKAALTLLGAQPEDEAEYFCALWYSNLWVFGGGTKLTVLGQPKAAPSVTLFPPSSEELQANKATLVCLISDFYPGAVTVAWKADSSPVKAGVETTTPSKQSNNKYAASSYLSLTPEQWKSHRSYSCQVTHEGSTVEKTVAPTECSDKTHTCPPCPAPEAAGGPSVFLFPPKPKDTLMISRTPEVTCVVVDVSHEDPEVKFNWYVDGVEVHNAKTKPREEQYNSTYRVVSVLTVLHQDWLNGKEYKCKVSNKALGAPIEKTISKAKGQPREPQVYTLPPCREEMTKNQVSLWCLVKGFYPSDIAVEWESNGQPENNYKTTPPVLDSDGSFFLYSKLTVDKSRWQQGNVFSCSVMHEALHNHYTQKSLSLSPGK
chain 3: EVQLVETGGGLIQPGGSLRLSCAASGFPVSSNYMSWVRQAPGKGLEWVSVIFSGGRTYYADSVKGRFTISRDNSKNTLYLQMNSLRAEDTAVYYCARRNWIDGRDAFDIWGQGTMVTVSSASEPKSSDKTHTCPPCPAPEAAGGPSVFLFPPKPKDTLMISRTPEVTCVVVDVSHEDPEVKFNWYVDGVEVHNAKTKPREEQYNSTYRVVSVLTVLHQDWLNGKEYKCKVSNKALGAPIEKTISKAKGQPREPQVCTLPPSREEMTKNQVSLSCAVKGFYPSDIAVEWESNGQPENNYKTTPPVLDSDGSFFLVSKLTVDKSRWQQGNVFSCSVMHEALHNHYTQKSLSLSPGK
notes: BCMAxCD3, Fab(cross Fd/LC)-Fc-VH (structure 13); CD3 of PR000511, BCMA VH of PR000943; IgG1 knob/hole, AAG
B2: PR001991 (bispecific antibody, human IgG1, kappa, L234A L235A)
chain 1: EVQLLESGGGLVQPGGSLRLSCAASGFTFNTYAMNWVRQAPGKGLEWVSRIRSKYNNYATYYADSVKDRFTISRDDSKSTLYLQMNSLRAEDTAVYYCVRHGNFGNSYVSWFAYWGQGTLVTVSSRTVAAPSVFIFPPSDEQLKSGTASVVCLLNNFYPREAKVQWKVDNALQSGNSQESVTEQDSKDSTYSLSSTLTLSKADYEKHKVYACEVTHQGLSSPVTKSFNRGEC
chain 2: QAVVTQEPSLTVSPGGTVTLTCRSSTGAVTTSNYANWVQQKPGQAPRGLIGGTNKRAPWTPARFSGSLLGDKAALTLLGAQPEDEAEYFCALWYSNLWVFGGGTKLTVLSSASTKGPSVFPLAPSSKSTSGGTAALGCLVKDYFPEPVTVSWNSGALTSGVHTFPAVLQSSGLYSLSSVVTVPSSSLGTQTYICNVNHKPSNTKVDKKVEPKSCDKTHTCPPCPAPEAAGGPSVFLFPPKPKDTLMISRTPEVTCVVVDVSHEDPEVKFNWYVDGVEVHNAKTKPREEQYNSTYRVVSVLTVLHQDWLNGKEYKCKVSNKALGAPIEKTISKAKGQPREPQVYTLPPCREEMTKNQVSLWCLVKGFYPSDIAVEWESNGQPENNYKTTPPVLDSDGSFFLYSKLTVDKSRWQQGNVFSCSVMHEALHNHYTQKSLSLSPGK
chain 3: EVQLLESGGGLVQPGGSLRLSCAASGFTFSSYAMIWVRQAPGKGLEWVSGISESGGSTYYADSVKGRFTISRDNSKNTLYLQMNSLRAEDTAVYFCVKDLDDILTGYYKDYWGQGTLVTVSSASEPKSSDKTHTCPPCPAPEAAGGPSVFLFPPKPKDTLMISRTPEVTCVVVDVSHEDPEVKFNWYVDGVEVHNAKTKPREEQYNSTYRVVSVLTVLHQDWLNGKEYKCKVSNKALGAPIEKTISKAKGQPREPQVCTLPPSREEMTKNQVSLSCAVKGFYPSDIAVEWESNGQPENNYKTTPPVLDSDGSFFLVSKLTVDKSRWQQGNVFSCSVMHEALHNHYTQKSLSLSPGK
notes: CD3 of PR000511, BCMA VH of PR000940; IgG1 knob/hole, AAG
B3: PR001994 (bispecific antibody, human IgG1, kappa, L234A L235A)
chain 1: B2 chain 1
chain 2: B2 chain 2
chain 3: EVQLVETGGGLIQPGGSLRLSCAASGFTVSDNYMTWVRQAPGKGLEWVSVIFSGGNTYYADSVKGRFTISRDNAKNTLYLQMNSLRAEDTALYYCARRNYDDTRGTDVFDIWGQGTMVTVSSASEPKSSDKTHTCPPCPAPEAAGGPSVFLFPPKPKDTLMISRTPEVTCVVVDVSHEDPEVKFNWYVDGVEVHNAKTKPREEQYNSTYRVVSVLTVLHQDWLNGKEYKCKVSNKALGAPIEKTISKAKGQPREPQVCTLPPSREEMTKNQVSLSCAVKGFYPSDIAVEWESNGQPENNYKTTPPVLDSDGSFFLVSKLTVDKSRWQQGNVFSCSVMHEALHNHYTQKSLSLSPGK
notes: BCMAxCD3, Fab(cross VH/VL)-Fc-VH (structure 12); CD3 of PR000511, BCMA VH of PR001046; IgG1 knob/hole, AAG
B4: PR001995 (bispecific antibody, IgG1)
chain 1: B1 chain 1
chain 2: B1 chain 2
chain 3: B2 chain 3
notes: as for B2
B5: PR001992 (bispecific antibody, human IgG1, kappa, L234A L235A)
chain 1: B2 chain 1
chain 2: B2 chain 2
chain 3: B1 chain 3
notes: BCMAxCD3, Fab(cross VH/VL)-Fc-VH (structure 12); CD3 of PR000511, BCMA VH of PR000943; IgG1 knob/hole, AAG
B6: PR001993 (bispecific antibody, human IgG1, kappa, L234A L235A)
chain 1: B2 chain 1
chain 2: B2 chain 2
chain 3: B1 chain 3 with P28T, S35T, R56S, N99I, W100A, I101V, D102A, R104H, A106V
notes: BCMAxCD3, Fab(cross VH/VL)-Fc-VH (structure 12); CD3 of PR000511, BCMA VH of PR001035; IgG1 knob/hole, AAG
B7: PR003868 (bispecific antibody, human IgG1, lambda, L234A L235A)
light: QAVVTQEPSLTVSPGGTVTLTCRSSTGAVTTSNYANWVQQKPGQAPRGLIGGTNKRAPWTPARFSGSLLGDKAALTLLGAQPEDEAEYFCALWYSNLWVFGGGTKLTVLGQPKAAPSVTLFPPSSEELQANKATLVCLISDFYPGAVTVAWKADSSPVKAGVETTTPSKQSNNKYAASSYLSLTPEQWKSHRSYSCQVTHEGSTVEKTVAPTECS
heavy: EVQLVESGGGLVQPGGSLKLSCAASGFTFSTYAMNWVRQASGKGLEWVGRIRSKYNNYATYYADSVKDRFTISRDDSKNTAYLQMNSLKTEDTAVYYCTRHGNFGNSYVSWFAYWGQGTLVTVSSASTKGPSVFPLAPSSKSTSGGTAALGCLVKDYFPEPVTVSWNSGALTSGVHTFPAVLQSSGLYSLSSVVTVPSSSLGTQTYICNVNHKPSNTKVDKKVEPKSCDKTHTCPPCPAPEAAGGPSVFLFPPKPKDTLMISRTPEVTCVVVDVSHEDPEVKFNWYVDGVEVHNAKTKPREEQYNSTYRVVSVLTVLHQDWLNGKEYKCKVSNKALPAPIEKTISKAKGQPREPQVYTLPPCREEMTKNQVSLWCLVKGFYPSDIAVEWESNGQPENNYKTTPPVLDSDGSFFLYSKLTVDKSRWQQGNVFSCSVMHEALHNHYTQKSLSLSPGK
chain: B3 chain 3 with S30Y, N56K, Y59V, D102Q, G238P
notes: BCMAxCD3, Fab-Fc-VH (structure 11); CD3 Fab of PR003886, BCMA VH of PR004563; IgG1 knob/hole, LALA
B8: PR003870 (bispecific antibody, human IgG1, lambda, L234A L235A)
light: B7 light
heavy: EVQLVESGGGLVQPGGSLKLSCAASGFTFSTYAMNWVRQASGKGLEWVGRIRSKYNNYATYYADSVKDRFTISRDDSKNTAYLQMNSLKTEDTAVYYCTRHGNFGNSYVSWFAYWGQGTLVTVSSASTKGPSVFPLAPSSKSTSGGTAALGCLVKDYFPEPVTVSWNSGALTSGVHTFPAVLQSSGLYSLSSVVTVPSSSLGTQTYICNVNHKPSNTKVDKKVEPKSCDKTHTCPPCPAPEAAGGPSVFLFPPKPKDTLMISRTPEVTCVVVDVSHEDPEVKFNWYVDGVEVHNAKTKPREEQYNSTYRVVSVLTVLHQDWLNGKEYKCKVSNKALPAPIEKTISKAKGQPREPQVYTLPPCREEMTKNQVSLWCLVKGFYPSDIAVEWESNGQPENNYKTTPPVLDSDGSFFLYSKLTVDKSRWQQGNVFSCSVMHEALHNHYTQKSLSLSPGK
chain: B3 chain 3 with N32A, Y59V, A60S, D102Q, R104I, G238P
notes: BCMAxCD3, Fab-Fc-VH (structure 11); CD3 Fab of PR003886, BCMA VH of PR004565; IgG1 knob/hole, LALA
B9: PR003869 (bispecific antibody, human IgG1, lambda, L234A L235A)
light: B7 light
heavy: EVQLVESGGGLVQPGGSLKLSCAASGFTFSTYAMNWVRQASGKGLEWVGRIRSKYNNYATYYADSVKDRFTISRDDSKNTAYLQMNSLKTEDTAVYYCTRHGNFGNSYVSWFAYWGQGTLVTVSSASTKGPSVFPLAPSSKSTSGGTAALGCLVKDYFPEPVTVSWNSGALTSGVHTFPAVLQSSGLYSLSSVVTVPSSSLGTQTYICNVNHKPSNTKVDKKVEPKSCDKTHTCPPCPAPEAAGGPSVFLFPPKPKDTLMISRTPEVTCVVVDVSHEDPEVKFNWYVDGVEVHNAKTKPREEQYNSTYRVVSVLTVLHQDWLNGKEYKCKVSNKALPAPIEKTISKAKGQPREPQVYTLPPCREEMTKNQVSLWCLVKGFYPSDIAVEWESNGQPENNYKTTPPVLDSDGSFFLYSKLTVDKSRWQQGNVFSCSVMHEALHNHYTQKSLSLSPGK
chain: B3 chain 3 with N32S, N56R, A60S, D102Q, R104L, G238P
notes: BCMAxCD3, Fab-Fc-VH (structure 11); CD3 Fab of PR003886, BCMA VH of PR004564; IgG1 knob/hole, LALA

The binders below were run against T1, human BCMA (assay: FACS on NCI-H929 cells).

Binder | Maximum MFI | EC50
B1 | 3320 | 
B2 | 1980 | 
B3 | 3430 | 
B4 | 2590 | 
B5 | 3210 | 
B6 | 1290 | 
B7 | 17400 | 7.3 nM
B8 | 10600 | 3.3 nM
B9 | 12500 | 1.7 nM

Source: patent US20230322953A1 (HARBOUR BIOMED SHANGHAI, published 2023)
